Results on nine molecules are retold here after article doi:10.1101/2025.09.16.670041 (bioRxiv, 2025).

Several values for one entry are separate records, joined by “and”; a condition that tells them apart may be missing. Equal entries are not always repeated. Where two headings read alike, the source gives them in different places. No end group written: not given here. fluorescein = fluorescein (N-terminal fluorescent label on the UBE3A peptide)

One may read the Kd as the equilibrium constant for the complex coming apart.

In assay [1] the target is biotinylated MBP-fused HERC2 RLD2 domain (residues 2941-3342) (human) (UniProt O95714). Description: native holdup assay.
Assay [2] has as its target T1, HERC2 RLD2 domain (residues 2941-3342), untagged (human, UniProt O95714 2941-3342).
T1 sequence (looked up): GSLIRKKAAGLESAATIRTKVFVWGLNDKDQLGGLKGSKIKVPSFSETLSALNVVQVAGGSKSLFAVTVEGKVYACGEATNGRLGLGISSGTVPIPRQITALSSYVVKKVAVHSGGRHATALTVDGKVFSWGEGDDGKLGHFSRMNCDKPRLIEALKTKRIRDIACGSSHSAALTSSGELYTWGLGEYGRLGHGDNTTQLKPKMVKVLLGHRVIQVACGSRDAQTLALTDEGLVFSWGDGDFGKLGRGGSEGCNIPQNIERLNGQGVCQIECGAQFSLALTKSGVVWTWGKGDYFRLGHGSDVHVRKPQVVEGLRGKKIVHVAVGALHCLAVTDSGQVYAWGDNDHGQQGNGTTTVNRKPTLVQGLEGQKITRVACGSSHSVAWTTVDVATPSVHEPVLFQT
Description: fluorescence polarisation.

Assay [3] addresses T2, endogenous full-length UBE3A from mouse brain (mouse (endogenous in mouse brain), UniProt O08759 1-870).
T2 sequence (looked up): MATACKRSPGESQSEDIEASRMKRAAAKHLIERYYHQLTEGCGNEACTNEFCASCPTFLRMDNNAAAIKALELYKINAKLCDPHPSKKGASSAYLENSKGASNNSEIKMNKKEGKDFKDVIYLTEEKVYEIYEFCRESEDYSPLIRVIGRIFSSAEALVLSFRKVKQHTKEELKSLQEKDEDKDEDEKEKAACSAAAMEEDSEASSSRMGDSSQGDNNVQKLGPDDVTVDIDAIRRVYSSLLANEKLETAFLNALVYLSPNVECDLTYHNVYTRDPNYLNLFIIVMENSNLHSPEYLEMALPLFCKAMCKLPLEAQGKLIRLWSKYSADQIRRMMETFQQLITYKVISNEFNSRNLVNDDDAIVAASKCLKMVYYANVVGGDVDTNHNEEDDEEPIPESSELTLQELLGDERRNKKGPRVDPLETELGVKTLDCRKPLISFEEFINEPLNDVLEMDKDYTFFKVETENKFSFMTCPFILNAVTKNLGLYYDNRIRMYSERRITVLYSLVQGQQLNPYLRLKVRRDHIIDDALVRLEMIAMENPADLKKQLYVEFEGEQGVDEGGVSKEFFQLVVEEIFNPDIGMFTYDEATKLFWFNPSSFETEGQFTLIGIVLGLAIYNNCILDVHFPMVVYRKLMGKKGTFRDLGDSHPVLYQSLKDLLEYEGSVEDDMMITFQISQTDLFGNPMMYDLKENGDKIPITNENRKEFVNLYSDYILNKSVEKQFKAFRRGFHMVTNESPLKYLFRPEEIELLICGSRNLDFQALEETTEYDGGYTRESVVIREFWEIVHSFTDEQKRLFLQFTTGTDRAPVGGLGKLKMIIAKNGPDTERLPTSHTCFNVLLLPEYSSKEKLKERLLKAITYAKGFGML
Description: native holdup assay.

Assay [4] has as its target T3, endogenous full-length ARID4A (human (endogenous in SH-SY5Y), UniProt P29374 1-1257).
T3 sequence (looked up): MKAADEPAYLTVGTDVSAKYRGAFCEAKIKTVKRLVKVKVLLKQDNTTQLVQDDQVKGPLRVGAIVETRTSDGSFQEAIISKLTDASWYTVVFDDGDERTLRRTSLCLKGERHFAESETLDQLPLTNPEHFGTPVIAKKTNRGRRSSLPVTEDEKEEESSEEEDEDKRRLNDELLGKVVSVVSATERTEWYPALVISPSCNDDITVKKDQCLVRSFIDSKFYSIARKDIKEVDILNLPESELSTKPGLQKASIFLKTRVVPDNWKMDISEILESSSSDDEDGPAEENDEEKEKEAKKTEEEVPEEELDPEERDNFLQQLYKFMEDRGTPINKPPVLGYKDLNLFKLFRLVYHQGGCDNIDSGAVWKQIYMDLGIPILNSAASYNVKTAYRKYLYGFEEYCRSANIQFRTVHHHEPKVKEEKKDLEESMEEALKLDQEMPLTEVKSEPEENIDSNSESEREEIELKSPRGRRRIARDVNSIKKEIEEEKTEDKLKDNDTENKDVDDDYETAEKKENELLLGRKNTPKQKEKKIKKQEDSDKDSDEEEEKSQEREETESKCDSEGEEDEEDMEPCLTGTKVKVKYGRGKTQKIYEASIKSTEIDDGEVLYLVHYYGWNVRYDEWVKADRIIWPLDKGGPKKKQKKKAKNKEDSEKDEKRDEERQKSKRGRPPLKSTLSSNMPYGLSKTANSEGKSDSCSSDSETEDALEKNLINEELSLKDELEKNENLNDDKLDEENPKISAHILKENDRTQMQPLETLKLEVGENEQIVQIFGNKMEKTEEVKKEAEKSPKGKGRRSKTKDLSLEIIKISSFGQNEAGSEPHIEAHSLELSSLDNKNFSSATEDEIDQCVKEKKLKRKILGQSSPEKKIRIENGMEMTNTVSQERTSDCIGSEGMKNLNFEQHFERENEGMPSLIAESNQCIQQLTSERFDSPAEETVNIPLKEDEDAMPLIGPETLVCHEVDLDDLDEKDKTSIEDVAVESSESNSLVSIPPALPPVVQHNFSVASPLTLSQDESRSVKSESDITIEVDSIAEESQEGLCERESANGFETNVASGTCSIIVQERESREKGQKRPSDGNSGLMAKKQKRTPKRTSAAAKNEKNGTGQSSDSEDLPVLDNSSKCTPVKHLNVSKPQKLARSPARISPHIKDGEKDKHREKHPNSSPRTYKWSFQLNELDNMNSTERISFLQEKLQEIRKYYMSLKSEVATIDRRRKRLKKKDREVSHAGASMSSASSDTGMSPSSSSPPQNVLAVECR
Description: native holdup assay.

Assay [5] deals with endogenous full-length UBE3A from SH-SY5Y cells (human (endogenous in SH-SY5Y), UniProt Q05086 1-875). As to the kind of experiment: native holdup assay.
Assay [6] has as its target endogenous full-length PCM1 (human (endogenous in SH-SY5Y), UniProt Q15154 1-2024). As to the kind of experiment: native holdup assay.
In assay [7] the target is endogenous full-length DOCK10 (human (endogenous in SH-SY5Y), UniProt Q96BY6 1-2186). Description: native holdup assay.
Assay [8] has as its target T4, endogenous full-length HERC2 (human (endogenous in SH-SY5Y), UniProt O95714 1-4834). As to the kind of experiment: native holdup assay.
Assay [9] has as its target T4, endogenous full-length HERC2. Description: native holdup assay. This is another data set of the same source.

T4 sequence (O95714 whole entry): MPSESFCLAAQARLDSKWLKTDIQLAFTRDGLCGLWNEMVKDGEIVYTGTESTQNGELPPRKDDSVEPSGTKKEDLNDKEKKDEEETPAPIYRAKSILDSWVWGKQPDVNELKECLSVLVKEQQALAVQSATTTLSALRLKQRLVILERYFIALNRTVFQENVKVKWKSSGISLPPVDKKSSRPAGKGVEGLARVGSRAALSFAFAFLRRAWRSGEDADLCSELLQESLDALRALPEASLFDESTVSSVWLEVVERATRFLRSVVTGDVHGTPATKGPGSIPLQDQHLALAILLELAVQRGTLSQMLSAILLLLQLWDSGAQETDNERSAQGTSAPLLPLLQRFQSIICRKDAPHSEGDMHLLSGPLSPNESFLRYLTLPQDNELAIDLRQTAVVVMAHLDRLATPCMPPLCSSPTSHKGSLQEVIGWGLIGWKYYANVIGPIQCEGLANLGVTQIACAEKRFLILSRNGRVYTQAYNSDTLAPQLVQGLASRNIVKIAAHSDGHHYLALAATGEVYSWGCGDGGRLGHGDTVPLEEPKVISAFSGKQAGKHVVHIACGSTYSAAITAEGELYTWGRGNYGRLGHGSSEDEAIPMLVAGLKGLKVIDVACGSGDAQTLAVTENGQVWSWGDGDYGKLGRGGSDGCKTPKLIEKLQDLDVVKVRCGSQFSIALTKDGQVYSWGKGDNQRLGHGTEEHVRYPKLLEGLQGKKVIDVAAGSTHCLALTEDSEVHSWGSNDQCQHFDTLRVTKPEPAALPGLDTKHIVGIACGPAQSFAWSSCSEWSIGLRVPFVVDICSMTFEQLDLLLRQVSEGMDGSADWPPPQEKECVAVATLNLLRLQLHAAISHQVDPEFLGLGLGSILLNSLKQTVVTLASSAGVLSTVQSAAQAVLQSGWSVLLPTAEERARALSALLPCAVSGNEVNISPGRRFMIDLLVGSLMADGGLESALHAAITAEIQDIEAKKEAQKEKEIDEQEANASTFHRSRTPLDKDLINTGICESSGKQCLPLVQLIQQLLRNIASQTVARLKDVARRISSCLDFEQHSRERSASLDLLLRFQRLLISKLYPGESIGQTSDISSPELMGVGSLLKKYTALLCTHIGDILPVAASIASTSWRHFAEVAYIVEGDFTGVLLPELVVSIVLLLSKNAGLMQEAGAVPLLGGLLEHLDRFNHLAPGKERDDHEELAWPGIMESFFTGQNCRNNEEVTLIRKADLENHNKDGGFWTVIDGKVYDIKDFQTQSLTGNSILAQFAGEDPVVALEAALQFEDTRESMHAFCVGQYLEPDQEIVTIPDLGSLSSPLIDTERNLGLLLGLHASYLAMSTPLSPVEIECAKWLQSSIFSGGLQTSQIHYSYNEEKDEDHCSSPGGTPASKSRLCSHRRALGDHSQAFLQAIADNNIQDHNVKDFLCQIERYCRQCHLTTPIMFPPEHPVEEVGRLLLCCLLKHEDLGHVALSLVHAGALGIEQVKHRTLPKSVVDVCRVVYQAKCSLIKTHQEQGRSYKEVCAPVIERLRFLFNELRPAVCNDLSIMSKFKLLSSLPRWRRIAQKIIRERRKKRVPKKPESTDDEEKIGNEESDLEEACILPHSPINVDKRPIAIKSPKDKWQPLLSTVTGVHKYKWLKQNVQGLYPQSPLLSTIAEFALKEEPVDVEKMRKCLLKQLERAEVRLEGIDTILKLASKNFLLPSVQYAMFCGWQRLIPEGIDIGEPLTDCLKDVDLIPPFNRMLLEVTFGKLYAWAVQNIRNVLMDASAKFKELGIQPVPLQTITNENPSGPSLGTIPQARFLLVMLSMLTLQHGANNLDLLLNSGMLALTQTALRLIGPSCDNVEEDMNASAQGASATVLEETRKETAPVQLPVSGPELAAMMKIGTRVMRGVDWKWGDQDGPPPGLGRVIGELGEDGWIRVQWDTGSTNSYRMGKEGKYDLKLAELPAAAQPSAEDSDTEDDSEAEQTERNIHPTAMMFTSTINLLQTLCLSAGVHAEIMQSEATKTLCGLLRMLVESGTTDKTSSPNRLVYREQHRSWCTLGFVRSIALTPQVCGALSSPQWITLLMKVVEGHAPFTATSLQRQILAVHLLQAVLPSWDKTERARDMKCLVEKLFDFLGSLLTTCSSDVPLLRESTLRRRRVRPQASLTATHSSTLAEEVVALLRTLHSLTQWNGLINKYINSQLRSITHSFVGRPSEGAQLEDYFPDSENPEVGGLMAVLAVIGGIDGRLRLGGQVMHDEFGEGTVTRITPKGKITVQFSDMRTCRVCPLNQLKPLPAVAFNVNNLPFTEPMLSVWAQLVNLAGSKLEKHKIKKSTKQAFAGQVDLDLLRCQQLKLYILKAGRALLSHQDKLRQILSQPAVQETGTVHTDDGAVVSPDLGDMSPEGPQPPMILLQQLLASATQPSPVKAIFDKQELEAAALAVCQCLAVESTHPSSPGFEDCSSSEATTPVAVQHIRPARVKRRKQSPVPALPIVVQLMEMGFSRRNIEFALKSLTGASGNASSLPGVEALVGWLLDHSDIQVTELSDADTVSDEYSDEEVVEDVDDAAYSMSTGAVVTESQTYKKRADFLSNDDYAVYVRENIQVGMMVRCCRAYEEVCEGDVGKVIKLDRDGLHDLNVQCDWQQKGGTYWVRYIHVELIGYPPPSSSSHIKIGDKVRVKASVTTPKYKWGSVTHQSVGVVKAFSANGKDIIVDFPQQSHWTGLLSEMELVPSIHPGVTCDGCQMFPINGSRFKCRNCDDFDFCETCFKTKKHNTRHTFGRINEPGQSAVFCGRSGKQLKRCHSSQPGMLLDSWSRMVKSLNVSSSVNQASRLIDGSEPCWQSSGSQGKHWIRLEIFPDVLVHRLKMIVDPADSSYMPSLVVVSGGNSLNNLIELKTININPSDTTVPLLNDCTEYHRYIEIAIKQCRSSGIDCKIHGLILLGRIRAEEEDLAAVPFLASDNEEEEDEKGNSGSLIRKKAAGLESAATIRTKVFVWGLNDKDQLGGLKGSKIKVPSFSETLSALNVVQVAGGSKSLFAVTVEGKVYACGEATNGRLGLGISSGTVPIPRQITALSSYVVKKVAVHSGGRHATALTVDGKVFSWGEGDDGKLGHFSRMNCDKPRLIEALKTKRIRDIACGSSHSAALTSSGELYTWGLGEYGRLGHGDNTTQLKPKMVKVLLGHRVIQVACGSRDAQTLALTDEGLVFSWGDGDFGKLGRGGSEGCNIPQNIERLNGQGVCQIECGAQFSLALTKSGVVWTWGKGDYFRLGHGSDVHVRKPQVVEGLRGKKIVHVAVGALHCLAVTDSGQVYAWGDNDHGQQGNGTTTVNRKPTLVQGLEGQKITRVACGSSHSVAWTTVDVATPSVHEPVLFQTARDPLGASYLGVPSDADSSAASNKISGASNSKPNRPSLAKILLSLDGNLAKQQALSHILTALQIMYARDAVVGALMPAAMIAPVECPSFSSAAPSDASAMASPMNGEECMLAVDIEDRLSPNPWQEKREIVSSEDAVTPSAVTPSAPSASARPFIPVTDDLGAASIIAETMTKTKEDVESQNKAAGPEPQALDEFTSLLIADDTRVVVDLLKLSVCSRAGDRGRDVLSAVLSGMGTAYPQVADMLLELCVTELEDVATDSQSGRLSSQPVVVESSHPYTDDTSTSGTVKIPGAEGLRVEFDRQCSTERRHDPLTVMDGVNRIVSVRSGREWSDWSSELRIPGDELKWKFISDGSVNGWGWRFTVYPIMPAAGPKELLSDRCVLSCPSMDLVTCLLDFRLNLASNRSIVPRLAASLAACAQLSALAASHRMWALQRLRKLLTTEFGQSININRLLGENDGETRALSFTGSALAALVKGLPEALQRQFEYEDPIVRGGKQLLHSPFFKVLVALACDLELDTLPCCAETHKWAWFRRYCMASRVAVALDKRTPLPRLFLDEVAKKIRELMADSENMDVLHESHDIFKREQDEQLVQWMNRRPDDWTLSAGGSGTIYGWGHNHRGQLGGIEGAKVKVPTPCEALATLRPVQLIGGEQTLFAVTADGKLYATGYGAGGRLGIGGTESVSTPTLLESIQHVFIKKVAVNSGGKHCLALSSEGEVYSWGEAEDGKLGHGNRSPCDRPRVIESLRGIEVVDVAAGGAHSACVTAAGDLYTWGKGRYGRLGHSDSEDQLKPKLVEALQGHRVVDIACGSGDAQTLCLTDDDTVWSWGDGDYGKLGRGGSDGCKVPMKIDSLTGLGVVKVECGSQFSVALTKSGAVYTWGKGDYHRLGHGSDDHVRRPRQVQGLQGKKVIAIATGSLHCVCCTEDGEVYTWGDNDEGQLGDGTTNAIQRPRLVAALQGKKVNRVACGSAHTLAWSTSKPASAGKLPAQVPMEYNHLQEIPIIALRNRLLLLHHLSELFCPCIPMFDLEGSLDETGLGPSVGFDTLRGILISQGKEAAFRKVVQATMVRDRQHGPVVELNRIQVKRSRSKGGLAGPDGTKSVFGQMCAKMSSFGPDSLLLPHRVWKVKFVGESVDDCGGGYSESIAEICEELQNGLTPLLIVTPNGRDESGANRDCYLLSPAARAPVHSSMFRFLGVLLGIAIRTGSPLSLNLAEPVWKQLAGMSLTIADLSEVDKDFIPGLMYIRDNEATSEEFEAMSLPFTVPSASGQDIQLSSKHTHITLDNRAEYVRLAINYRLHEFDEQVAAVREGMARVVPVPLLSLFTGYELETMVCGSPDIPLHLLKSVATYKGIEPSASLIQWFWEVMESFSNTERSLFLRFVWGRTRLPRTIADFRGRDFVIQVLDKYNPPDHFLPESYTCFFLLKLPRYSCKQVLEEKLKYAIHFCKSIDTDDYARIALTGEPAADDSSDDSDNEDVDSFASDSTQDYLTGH

“endogenous full-length UBE3A from zebrafish embryos (enzyme)” gave a dissociation constant Kd in assay [1] of 0.1 µM. Still for that read-out and setting: in the case of “endogenous full-length MYT1 (from UniProt Q01538 1-1121) (natural protein)” it was more than 10 µM.

Molecule AKDEDKDEDEKEKAA (peptide, UniProt Q05086-2 160-174, looked up) [UBE3A peptide residues 160-174] had a Kd in assay [2] of 6.85 ± 0.29 µM.

For the molecule fluorescein-SLQAKDEDKDEDEKEKAA [UBE3A 18-aa linked to fluorescein], the binding result in [2] is reported as “binds”.

B1: biotinylated MBP-fused HERC2 RLD2 domain (residues 2941-3342) (domain or fragment, human, UniProt O95714 2941-3342, looked up)
chain: T1 sequence (looked up)
modifications: biotin on the AviTag (in vivo biotinylation)
For the molecule B1, the Kd in assay [3] was approximately 0.1 µM; in assay [4] it was less than 0.1 µM; in [5] it was < 0.1 µM and ~0.1 µM; in assay [6] it was 0.26 ± 0.04 µM; in [7], 2.6 ± 0.5 µM. Consider HTKEELKSLQAKDEDKDEDEKEKAA [non-labeled UBE3A peptide residues 150-174], for which the equilibrium dissociation constant (Kd) in assay [2] is less than 0.1 µM.

B2: biotinylated full-length MBP-fused UBE3A protein (enzyme, human, UniProt Q05086-2 1-852, looked up)
chain: MKRAAAKHLIERYYHQLTEGCGNEACTNEFCASCPTFLRMDNNAAAIKALELYKINAKLCDPHPSKKGASSAYLENSKGAPNNSCSEIKMNKKGARIDFKDVTYLTEEKVYEILELCREREDYSPLIRVIGRVFSSAEALVQSFRKVKQHTKEELKSLQAKDEDKDEDEKEKAACSAAAMEEDSEASSSRIGDSSQGDNNLQKLGPDDVSVDIDAIRRVYTRLLSNEKIETAFLNALVYLSPNVECDLTYHNVYSRDPNYLNLFIIVMENRNLHSPEYLEMALPLFCKAMSKLPLAAQGKLIRLWSKYNADQIRRMMETFQQLITYKVISNEFNSRNLVNDDDAIVAASKCLKMVYYANVVGGEVDTNHNEEDDEEPIPESSELTLQELLGEERRNKKGPRVDPLETELGVKTLDCRKPLIPFEEFINEPLNEVLEMDKDYTFFKVETENKFSFMTCPFILNAVTKNLGLYYDNRIRMYSERRITVLYSLVQGQQLNPYLRLKVRRDHIIDDALVRLEMIAMENPADLKKQLYVEFEGEQGVDEGGVSKEFFQLVVEEIFNPDIGMFTYDESTKLFWFNPSSFETEGQFTLIGIVLGLAIYNNCILDVHFPMVVYRKLMGKKGTFRDLGDSHPVLYQSLKDLLEYEGNVEDDMMITFQISQTDLFGNPMMYDLKENGDKIPITNENRKEFVNLYSDYILNKSVEKQFKAFRRGFHMVTNESPLKYLFRPEEIELLICGSRNLDFQALEETTEYDGGYTRDSVLIREFWEIVHSFTDEQKRLFLQFTTGTDRAPVGGLGKLKMIIAKNGPDTERLPTSHTCFNVLLLPEYSSKEKLKERLLKAITYAKGFGML
modifications: biotin on the AviTag (in vivo biotinylation)
The molecule B2 yielded a Kd in assay [8] of 0.56 ± 0.15 µM.

B3: UBE3A peptide residues 150-200 (peptide, UniProt Q05086-2 150-200, looked up)
peptide: HTKEELKSLQAKDEDKDEDEKEKAACSAAAMEEDSEASSSRIGDSSQGDNN
Consider B3, for which, in assay [2], the binding result is “binds”.

HTKEELKSLQAKDEDKDEDEKEKAA (also: biotin, position not given here) [biotinylated UBE3A peptide containing amino acids 150-174] had a Kd in assay [9] of 0.34 ± 0.09 µM.
